Data from the supplement of paper PMC5998384.

Assays:
[1] = tested on: HeLa Kyoto; test: solubility change mitosis vs G1/S (difference of NP-40 vs SDS log2 ratios) (log2 ratio difference); higher = more soluble in mitosis
[2] = tested on: HeLa Kyoto; test: solubility in G1/S (NP-40 vs SDS abundance) (log2 ratio); higher = more soluble; settings: cell cycle stage: G1/S
[3] = tested on: HeLa Kyoto; test: thermal stability score vs G1/S (z-score of summed log2 fold changes over temperatures); higher = more thermally stable than in G1/S
[4] = tested on: HeLa Kyoto; test: melting temperature (median over replicates), in situ; higher = more thermally stable
[5] = cell cycle stage: early G1 (4.5 h after nocodazole release)
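Throughout, for melting temperature (median over replicates), in situ: HeLa Kyoto cells synchronized by double thymidine or nocodazole block, proteins quantified by TMT10plex mass spectrometry, three independent biological replicates.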
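Throughout, for solubility change mitosis vs G1/S (difference of NP-40 vs SDS log2 ratios): synchronized HeLa Kyoto cells (double thymidine block for G1/S, nocodazole release for mitosis), protein amounts in NP-40 versus SDS lysates quantified by mass spectrometry, three biological replicates.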
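Throughout, for solubility in G1/S (NP-40 vs SDS abundance): HeLa Kyoto cells arrested at G1/S by double thymidine block, proteins quantified by TMT10plex mass spectrometry in mild NP-40 versus SDS extracts, three biological replicates.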
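Throughout, for thermal stability score vs G1/S (z-score of summed log2 fold changes over temperatures): synchronized HeLa Kyoto cells, proteins quantified by TMT10plex mass spectrometry, three biological replicates, mitosis taken 0.5 h after nocodazole release, G1/S directly after double thymidine block.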

| Sequence | solubility change mitosis (log2) [1] | solubility in G1/S (log2) [2] | thermal stability score [3, 5] | thermal stability score ([3]; cell cycle stage: mitosis) | melting temperature ([4]; cell cycle stage: G1/S) | melting temperature ([4]; cell cycle stage: mitosis) |
| --- | --- | --- | --- | --- | --- | --- |
| MIKLFSLKQQKKEEESAGGTKGSSKKASAAQLRIQKDINELNLPKTCDISFSDPDDLLNFKLVICPDEGFYKSGKFVFSFKVGQGYPHDPPKVKCETMVYHPNIDLEGNVCLNILREDWKPVLTINSIIYGLQYLFLEPNPEDPLNKEAAEVLQNNRRLFEQNVQRSMRGGYIGSTYFERCLK [UBE2M] | -0.0392 | 0.576 | -1.49 | -1.29 | 51.1 °C | 51.2 °C |
| MAYPGHPGAGGGYYPGGYGGAPGGPAFPGQTQDPLYGYFAAVAGQDGQIDADELQRCLTQSGIAGGYKPFNLETCRLMVSMLDRDMSGTMGFNEFKELWAVLNGWRQHFISFDTDRSGTVDPQELQKALTTMGFRLSPQAVNSIAKRYSTNGKITFDDYIACCVKLRALTDSFRRRDTAQQGVVNFPYDDFIQCVMSV [SRI] | 0.318 | 0.028 | -2.31 | -2.35 | 52.8 °C | 52.2 °C |
| MALRACGLIIFRRCLIPKVDNNAIEFLLLQASDGIHHWTPPKGHVEPGEDDLETALRETQEEAGIEAGQLTIIEGFKRELNYVARNKPKTVIYWLAEVKDYDVEIRLSHEHQAYRWLGLEEACQLAQFKEMKAALQEGHQFLCSIEA [NUDT2] | 0.0921 | -0.102 | -0.841 | -1.24 | 51.7 °C | 51.9 °C |
| MADGVDHIDIYADVGEEFNQEAEYGGHDQIDLYDDVISPSANNGDAPEDRDYMDTLPPTVGDDVGKGAAPNVVYTYTGKRIALYIGNLTWWTTDEDLTEAVHSLGVNDILEIKFFENRANGQSKGFALVGVGSEASSKKLMDLLPKRELHGQNPVVTPCNKQFLSQFEMQSRKTTQSGQMSGEGKAGPPGGSSRAAFPQGGRGRGRFPGAVPGGDRFPGPAGPGGPPPPFPAGQTPPRPPLGPPGPPGPPGPPPPGQVLPPPLAGPPNRGDRPPPPVLFPGQPFGQPPLGPLPPGPPPPVPGYGPPPGPPPPQQGPPPPPGPFPPRPPGPLGPPLTLAPPPHLPGPPPGAPPPAPHVNPAFFPPPTNSGMPTSDSRGPPPTDPYGRPPPYDRGDYGPPGREMDTARTPLSEAEFEEIMNRNRAISSSAISRAVSDASAGDYGSAIETLVTAISLIKQSKVSADDRCKVLISSLQDCLHGIESKSYGSGSRRERSRERDHSRSREKSRRHKSRSRDRHDDYYRERSRERERHRDRDRDRDRERDREREYRHR [CPSF6] | 0.0573 | -0.195 | -1.57 | -2.72 | 53 °C | 53.2 °C |
| MVWKVAVFLSVALGIGAVPIDDPEDGGKHWVVIVAGSNGWYNYRHQADACHAYQIIHRNGIPDEQIVVMMYDDIAYSEDNPTPGIVINRPNGTDVYQGVPKDYTGEDVTPQNFLAVLRGDAEAVKGIGSGKVLKSGPQDHVFIYFTDHGSTGILVFPNEDLHVKDLNETIHYMYKHKMYRKMVFYIEACESGSMMNHLPDNINVYATTAANPRESSYACYYDEKRSTYLGDWYSVNWMEDSDVEDLTKETLHKQYHLVKSHTNTSHVMQYGNKTISTMKVMQFQGMKRKASSPVPLPPVTHLDLTPSPDVPLTIMKRKLMNTNDLEESRQLTEEIQRHLDARHLIEKSVRKIVSLLAASEAEVEQLLSERAPLTGHSCYPEALLHFRTHCFNWHSPTYEYALRHLYVLVNLCEKPYPLHRIKLSMDHVCLGHY [LGMN] | -0.0973 | 0.416 | 5.08 | 5.7 | 53.8 °C | 54.2 °C |
| MAPLGGAPRLVLLFSGKRKSGKDFVTEALQSRLGADVCAVLRLSGPLKEQYAQEHGLNFQRLLDTSTYKEAFRKDMIRWGEEKRQADPGFFCRKIVEGISQPIWLVSDTRRVSDIQWFREAYGAVTQTVRVVALEQSRQQRGWVFTPGVDDAESECGLDNFGDFDWVIENHGVEQRLEEQLENLIEFIRSRL [PMVK] | -0.0243 | -0.0155 | 1.41 | 1.71 | 46.6 °C | 47.8 °C |
| MAMVTGGWGGPGGDTNGVDKAGGYPRAAEDDSASPPGAASDAEPGDEERPGLQVDCVVCGDKSSGKHYGVFTCEGCKSFFKRSIRRNLSYTCRSNRDCQIDQHHRNQCQYCRLKKCFRVGMRKEAVQRGRIPHSLPGAVAASSGSPPGSALAAVASGGDLFPGQPVSELIAQLLRAEPYPAAAGRFGAGGGAAGAVLGIDNVCELAARLLFSTVEWARHAPFFPELPVADQVALLRLSWSELFVLNAAQAALPLHTAPLLAAAGLHAAPMAAERAVAFMDQVRAFQEQVDKLGRLQVDSAEYGCLKAIALFTPDACGLSDPAHVESLQEKAQVALTEYVRAQYPSQPQRFGRLLLRLPALRAVPASLISQLFFMRLVGKTPIETLIRDMLLSGSTFNWPYGSGQ [NR2F6] | -0.047 | 0.0616 | 0.278 | 0.498 | 53.1 °C | 50.3 °C |
